# According to patent US20220323445A1, “REDUCING IMMUNOGENICITY TO PEGLOTICASE” (Horizon Therapeutics Ireland DAC, priority 2020, published 2022):
# System: patients with uncontrolled gout
# Assay: Health Assessment Questionnaire (HAQ-DI, HAQ pain, HAQ health), open-label study
# Assay type: in vivo, human
# Parameters: key to HAQ-Health, Observed, Median / HAQ-Health, Change from Baseline, Median: 0-100 scale; 0 = very well, 100 = very poor health; key to HAQ-DI, Observed, Median / HAQ-DI, Change from Baseline, Median: HAQ-DI scale 0-3; 0 = no difficulty, 3 = unable to do
# Settings: mITT
# Description: Quality-of-Life Assessment: The HAQ was administered at the Screening and Week −4 or week −6 (prior to the first dose of MTX) Visits during the MTX Run-in Period for the open-label and randomized studies, respectively; prior to pegloticase infusion at the Day 1 and Weeks 14, 24 and 36 Visits or at the Day 1 and weeks 6, 14, 20, 24, 30, 36, and 44 visits during the Pegloticase+IMM Period for the open-label and randomized studies, respectively; at the End of Pegloticase Infusions Visit (if applicable), the Week 52/End of Study/Early Termination Visit and the Post Treatment Periods 3 and 6 Month Follow-up Visits (open-label study). The HAQ-DI is a self-report functional status instrument that can be filled out by a subject in less than 5 minutes and requires 1 minute to score. The index measures disability over the past week by asking a total of 20 questions covering 8 domains of function: dressing and grooming, arising, eating, walking, hygiene, reach, grip, and usual activities. There are at least 2 questions in each domain and the 8 domains represent a comprehensive set of functional activities. The HAQ-DI is calculated by scoring the answer to each question in the HAQ from 0 to 3, with 0 representing the ability to do without any difficulty, and 3 representing inability to do. Any activity that requires assistance from another individual or requires the use of an assistive device raises a 0 or 1 score to a 2. The highest score for each of the 8 domains is summed (range from 0 to 24) and divided by 8 to yield, on a scale with 25 possible values, a Functional Disability Index with a range from 0 to 3. The disability index is based on the number of domains answered and is computed only if the subject completes answers to at least 6 domains. The HAQ pain scale asks subjects to record how much pain they have had in the past week on a scale of 0 to 100, where zero represents “no pain” and 100 represents “severe pain”. The HAQ health scale is a measure of overall health. Subjects are asked to rate how well they are doing on a score of 0 to 100, where zero represents “very well” and 100 represents “very poor” health.
# [1] = Week 14 vs Pegloticase Baseline, n=14
# [2] = Week 24 vs Methotrexate Baseline, n=11
# [3] = Week 24 vs Pegloticase Baseline, n=11
# [4] = Week 36 vs Methotrexate Baseline, n=9
# [5] = Week 36 vs Pegloticase Baseline, n=9
# [6] = Week 52/ET vs Methotrexate Baseline, n=3
# [7] = Week 52/ET vs Pegloticase Baseline, n=3
molecule,measurement,setting,value
"pegloticase (protein, monomethoxy PEG conjugated; Krystexxa Sequence, covalent conjugate of uricase produced by a genetically modified strain of Escherichia coli and monomethoxypoly (ethylene glycol)) TYKKNDEVEFVRTGYGKDMIKVLHIQRDGKYHSIKEVATTVQLTLSSKKDYLHGDNSDVIPTDTIKNTVNVLAKFKGIKSIETFAVTICEHFLSSFKHVIRAQVYVEEVPWKRFEKNGVKHVHAFIYTPTGTHFCEVEQIRNGPPVIHSGIKDLKVLKTTQSGFEGFIKDQFTTLPEVKDRCFATQVYCKWRYHQGRDVDFEATWDTVRSIVLQKFAGPYDKGEYSPSVQKTLYDIQVLTLGQVPEIEDMEISLPNIHYLNIDMSKMGLINKEEVLLPLDNPYGKITGTVKRKLSSRL","HAQ-Pain, Change from Baseline, Median","Week 14 vs Methotrexate Baseline, n=14",−12.5
same,"HAQ-DI, Change from Baseline, Mean (SD)",[1],−0.3 (0.80)
same,"HAQ-DI, Change from Baseline, Median",[1],0.0
same,"HAQ-Health, Change from Baseline, Mean (SD)",[1],−4.3 (43.82)
same,"HAQ-Health, Change from Baseline, Median",[1],−1.0
same,"HAQ-Pain, Change from Baseline, Mean (SD)",[1],−16.0 (30.65)
same,"HAQ-Pain, Change from Baseline, Median",[1],−12.5
same,"HAQ-DI, Observed, Mean (SD)","Week 24, n=11",0.2 (0.33)
same,"HAQ-DI, Observed, Median","Week 24, n=11",0.1
same,"HAQ-Health, Observed, Mean (SD)","Week 24, n=11",21.4 (26.65)
same,"HAQ-Health, Observed, Median","Week 24, n=11",10.0
same,"HAQ-Pain, Observed, Mean (SD)","Week 24, n=11",25.4 (27.50)
same,"HAQ-Pain, Observed, Median","Week 24, n=11",20.0
same,"HAQ-DI, Change from Baseline, Mean (SD)",[2],−0.5 (0.74)
same,"HAQ-DI, Change from Baseline, Median",[2],−0.1
same,"HAQ-Health, Change from Baseline, Mean (SD)",[2],−33.2 (36.01)
same,"HAQ-Health, Change from Baseline, Median",[2],−40.0
same,"HAQ-Pain, Change from Baseline, Mean (SD)",[2],−19.2 (35.13)
same,"HAQ-Pain, Change from Baseline, Median",[2],−10.0
same,"HAQ-DI, Change from Baseline, Mean (SD)",[3],−0.6 (0.85)
same,"HAQ-DI, Change from Baseline, Median",[3],−0.1
same,"HAQ-Health, Change from Baseline, Mean (SD)",[3],−19.7 (43.38)
same,"HAQ-Health, Change from Baseline, Median",[3],−10.0
same,"HAQ-Pain, Change from Baseline, Mean (SD)",[3],−16.7 (38.53)
same,"HAQ-Pain, Change from Baseline, Median",[3],−10.0
same,"HAQ-DI, Observed, Mean (SD)","Week 36, n=9",0.3 (0.49)
same,"HAQ-DI, Observed, Median","Week 36, n=9",0.1
same,"HAQ-Health, Observed, Mean (SD)","Week 36, n=9",27.3 (35.18)
same,"HAQ-Health, Observed, Median","Week 36, n=9",10.0
same,"HAQ-Pain, Observed, Mean (SD)","Week 36, n=9",21.0 (27.60)
same,"HAQ-Pain, Observed, Median","Week 36, n=9",10.0
same,"HAQ-DI, Change from Baseline, Mean (SD)",[4],−0.5 (0.80)
same,"HAQ-DI, Change from Baseline, Median",[4],0.0
same,"HAQ-Health, Change from Baseline, Mean (SD)",[4],−27.7 (42.59)
same,"HAQ-Health, Change from Baseline, Median",[4],−10.0
same,"HAQ-Pain, Change from Baseline, Mean (SD)",[4],−22.9 (28.41)
same,"HAQ-Pain, Change from Baseline, Median",[4],−20.0
same,"HAQ-DI, Change from Baseline, Mean (SD)",[5],−0.5 (0.86)
same,"HAQ-DI, Change from Baseline, Median",[5],−0.1
same,"HAQ-Health, Change from Baseline, Mean (SD)",[5],−16.2 (50.72)
same,"HAQ-Health, Change from Baseline, Median",[5],−10.0
same,"HAQ-Pain, Change from Baseline, Mean (SD)",[5],−19.9 (20.25)
same,"HAQ-Pain, Change from Baseline, Median",[5],−20.0
same,"HAQ-DI, Change from Baseline, Mean (SD)",[6],−0.6 (0.87)
same,"HAQ-DI, Change from Baseline, Median",[6],−0.1
same,"HAQ-Health, Change from Baseline, Mean (SD)",[6],−16.7 (59.23)
same,"HAQ-Health, Change from Baseline, Median",[6],15.0
same,"HAQ-Pain, Change from Baseline, Mean (SD)",[6],−42.7 (18.04)
same,"HAQ-Pain, Change from Baseline, Median",[6],−44.0
same,"HAQ-DI, Change from Baseline, Mean (SD)",[7],−0.8 (1.08)
same,"HAQ-DI, Change from Baseline, Median",[7],−0.1
same,"HAQ-Health, Change from Baseline, Mean (SD)",[7],23.3 (54.85)
same,"HAQ-Health, Change from Baseline, Median",[7],5.0
same,"HAQ-Pain, Change from Baseline, Mean (SD)",[7],−41.0 (25.24)
same,"HAQ-Pain, Change from Baseline, Median",[7],−29.0
same,"HAQ-DI, Observed, Mean (SD)","Week 52/ET, n=3",0.4 (0.29)
same,"HAQ-DI, Observed, Median","Week 52/ET, n=3",0.3
same,"HAQ-Health, Observed, Mean (SD)","Week 52/ET, n=3",60.0 (48.22)
same,"HAQ-Health, Observed, Median","Week 52/ET, n=3",80.0
same,"HAQ-Pain, Observed, Mean (SD)","Week 52/ET, n=3",4.0 (5.20)
same,"HAQ-Pain, Observed, Median","Week 52/ET, n=3",1.0
